{"source": "paper PMC3932240", "about": "(Biochemistry, 2013)", "target": "the molecule itself", "test": "SEC"}
{"protein": "CpcS-III bilin lyase from Thermosynechococcus elongatus BP-1, C-terminally His-tagged (from pTER13-21) (enzyme, UniProt Q8DI91 1-182, looked up, selenomethionine-labeled in the sample that was crystallized) MCIGMDIRDFFAQSAGRWFSQRTSHHLAFKQTESGKSQLTIELLSVDDPAVIALCQQYDMDPAWAVCGARVSWDGTMEWDNEKHEGSTVLVPIMDQGSRMEGKLLREMGYAEKAPVAGRFSMGSDGALTLITEYETIYSEERLWFASPNLRLRTSILKRFGGFSMASFCSEIRLGVTQPANS", "values": [{"measurement": "stoichiometry N", "value": 2}]}
